Target: human 4-1BB on primary human CD8 T cells (human) (UniProt Q07011)
Test: cell-based or functional assay

Chain of human 4-1BB on primary human CD8 T cells (human) (Q07011 24-255 limits assumed): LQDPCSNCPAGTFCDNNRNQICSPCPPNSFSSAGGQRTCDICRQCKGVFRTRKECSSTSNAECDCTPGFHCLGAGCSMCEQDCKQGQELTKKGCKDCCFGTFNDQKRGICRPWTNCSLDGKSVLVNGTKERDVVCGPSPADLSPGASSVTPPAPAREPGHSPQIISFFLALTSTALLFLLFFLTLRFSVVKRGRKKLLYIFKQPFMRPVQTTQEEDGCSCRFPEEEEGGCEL

| EC50, IFNγ production by primary human CD8 T cells, antibody cross-linked via anti-Fc | EC50, IFNγ production by primary human CD8 T cells, antibody soluble | EC50, IFNγ production by primary human CD8 T cells, cross-linked via coated anti-Fc | EC50, IFNγ production by primary human CD8 T cells, without Fc-cross-linking | EC50, IFNγ production by primary human CD8 T cells, Fc-mediated cross-linking | Substance |
| --- | --- | --- | --- | --- | --- |
| 0.02 nM | 0.93 nM | 0.04 nM | 0.97 nM | – | Anti-4-1BB mAb 20H4.9 (antibody) |
| 0.21 nM | – | – | – | 0.42 nM | Anti-4-1BB mAb MOR-7480 (antibody) |

— patent publication US20240190999A1
